According to patent US20200199241A1 (Chugai, published 2020):

Target: T1, human FcRn (soluble human FcRn complexed with β2-microglobulin) (human, UniProt P61769 21-119, limits assumed)
T1 construct: also called hFcRn
Assay: SPR, pH 7.0;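 also: antibodies captured on a Protein L sensor chip with human FcRn injected as analyte, KD calculated from fitted association and dissociation rate constants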

| Kd [nM] | Binder |
| --- | --- |
| 61 | IgG1-F279 (antibody, EU numbering; copies: 2 + 2) heavy: QVQLQESGPGLVKPSETLSLTCAVSGHSISHDHAWSWVRQPPGEGLEWIGFISYSGITNYNPSLQGRVTISRDNSKNTLYLQMNSLRAEDTAVYYCARSLARTTAMDYWGEGTLVTVSSASTKGPSVFPLAPSSKSTSGGTAALGCLVKDYFPEPVTVSWNSGALTSGVHTFPAVLQSSGLYSLSSVVTVPSSSLGTQTYICNVNHKPSNTKVDKKVEPKSCDKTHTCPPCPAPELLGGPSVFLFPPKPKDTLYISRTPEVTCVVVDVSHEDPEVKFNWYVDGVEVHNAKTKPREEQYNSTYRVVSVLTPLHHDWLNGKEYKCKVSNKALPAPIEKTISKAKGQPREPQVYTLPPSRDELTKNQVSLTCLVKGFYPSDIAVEWASNGQPENNYKTTPPVLDSDGSFFLYSKLTVDKSRWQQGNVFSCSVMHEALHYHYTQKSLSLSP light: not shown |
| 120 | IgG1-F286 (antibody, EU numbering; copies: 2 + 2) heavy: QVQLQESGPGLVKPSETLSLTCAVSGHSISHDHAWSWVRQPPGEGLEWIGFISYSGITNYNPSLQGRVTISRDNSKNTLYLQMNSLRAEDTAVYYCARSLARTTAMDYWGEGTLVTVSSASTKGPSVFPLAPSSKSTSGGTAALGCLVKDYFPEPVTVSWNSGALTSGVHTFPAVLQSSGLYSLSSVVTVPSSSLGTQTYICNVNHKPSNTKVDKKVEPKSCDKTHTCPPCPAPELLGGPKVFLFPPKPKDTLYISRTPEVTCVVVDVSHEDPEVKFNWYVDGVEVHNAKTKPREEQYNSTYRVVSVLTPLHQDWLNGKEYKCKVSNKALPAPIEKTISKAKGQPREPQVYTLPPSRDELTKNQVSLTCLVKGFYPSDIAVEWASNGQPENNYKTTPPVLDSDGSFFLYSKLTVDKSRWQQGNVFSCSVYHEALHYHYTQKSLSLSP light: not shown |
| 53 | IgG1-F293 (antibody, EU numbering; copies: 2 + 2) heavy: QVQLQESGPGLVKPSETLSLTCAVSGHSISHDHAWSWVRQPPGEGLEWIGFISYSGITNYNPSLQGRVTISRDNSKNTLYLQMNSLRAEDTAVYYCARSLARTTAMDYWGEGTLVTVSSASTKGPSVFPLAPSSKSTSGGTAALGCLVKDYFPEPVTVSWNSGALTSGVHTFPAVLQSSGLYSLSSVVTVPSSSLGTQTYICNVNHKPSNTKVDKKVEPKSCDKTHTCPPCPAPELLGGPSVFLFPPKPKDTLYISRTPEVTCVVVDVSHEDPEVKFNWYVDGVEVHNAKTKPREEQYNSTYRVVSVLTPLHQDWLNGKEYKCKVSNKALPAPIEKTISKAKGQPREPQVYTLPPSRDELTKNQVSLTCLVKGFYPSDIAVAWASNGQPENNYKTTPPVLDSDGSFFLYSKLTVDKSRWQQGNVFSCSVIHEALHYHYTQKSLSLSP light: not shown |
| 460 | IgG1-F290 (antibody, EU numbering; copies: 2 + 2) heavy: QVQLQESGPGLVKPSETLSLTCAVSGHSISHDHAWSWVRQPPGEGLEWIGFISYSGITNYNPSLQGRVTISRDNSKNTLYLQMNSLRAEDTAVYYCARSLARTTAMDYWGEGTLVTVSSASTKGPSVFPLAPSSKSTSGGTAALGCLVKDYFPEPVTVSWNSGALTSGVHTFPAVLQSSGLYSLSSVVTVPSSSLGTQTYICNVNHKPSNTKVDKKVEPKSCDKTHTCPPCPAPELLGGPSVFLFPPKPKDTLYISREPEVTCVVVDVSHEDPEVKFNWYVDGVEVHNAKTKPREEQYNSTYRVVSVLTVLHQDWLNGKEYKCKVSNKALPAPIEKTISKAKGQPREPQVYTLPPSRDELTKNQVSLTCLVKGFYPSDIAVEWASNGQPENNYKTTPPVLDSDGSFFLYSKLTVDKSRWQQGNVFSCSVYHEALHYHYTQKSLSLSP light: not shown |
| 99 | IgG1-F285 (antibody, EU numbering; copies: 2 + 2) heavy: QVQLQESGPGLVKPSETLSLTCAVSGHSISHDHAWSWVRQPPGEGLEWIGFISYSGITNYNPSLQGRVTISRDNSKNTLYLQMNSLRAEDTAVYYCARSLARTTAMDYWGEGTLVTVSSASTKGPSVFPLAPSSKSTSGGTAALGCLVKDYFPEPVTVSWNSGALTSGVHTFPAVLQSSGLYSLSSVVTVPSSSLGTQTYICNVNHKPSNTKVDKKVEPKSCDKTHTCPPCPAPELLGGPSVFLFPPKPKDTLYISRTPEVTCVVVDVSHEDPEVKFNWYVDGVEVHNAKTKPREEQYNSTYRVVSVLTPLHQDWLNGKEYKCKVSNKALPAPIEKTISKAKGQPREPQVYTLPPSRDELTKNQVSLTCLVKGFYPSDIAVEWESNGQPENNYKTTPPVLDSDGSFFLYSKLTVDKSRWQQGNVFSCSVFHEALHYHYTQKSLSLSP light: not shown |
| 480 | IgG1-F289 (antibody, EU numbering; copies: 2 + 2) heavy: QVQLQESGPGLVKPSETLSLTCAVSGHSISHDHAWSWVRQPPGEGLEWIGFISYSGITNYNPSLQGRVTISRDNSKNTLYLQMNSLRAEDTAVYYCARSLARTTAMDYWGEGTLVTVSSASTKGPSVFPLAPSSKSTSGGTAALGCLVKDYFPEPVTVSWNSGALTSGVHTFPAVLQSSGLYSLSSVVTVPSSSLGTQTYICNVNHKPSNTKVDKKVEPKSCDKTHTCPPCPAPELLGGPSVFLFPPKPKDTLYISREPEVTCVVVDVSHEDPEVKFNWYVDGVEVHNAKTKPREEQYNSTYRVVSVLTVLHQDWLNGKEYKCKVSNKALPAPIEKTISKAKGQPREPQVYTLPPSRDELTKNQVSLTCLVKGFYPSDIAVEWESNGQPENNYKTTPPVLDSDGSFFLYSKLTVDKSRWQQGNVFSCSVYHEALHYHYTQKSLSLSP light: not shown |
| 29 | IgG1-F282 (antibody, EU numbering; copies: 2 + 2) heavy: QVQLQESGPGLVKPSETLSLTCAVSGHSISHDHAWSWVRQPPGEGLEWIGFISYSGITNYNPSLQGRVTISRDNSKNTLYLQMNSLRAEDTAVYYCARSLARTTAMDYWGEGTLVTVSSASTKGPSVFPLAPSSKSTSGGTAALGCLVKDYFPEPVTVSWNSGALTSGVHTFPAVLQSSGLYSLSSVVTVPSSSLGTQTYICNVNHKPSNTKVDKKVEPKSCDKTHTCPPCPAPELLGGPSVFLFPPKPKDTLYISRTPEVTCVVVDVSHEDPEVKFNWYVDGVEVHNAKTKPREEQYNSTYRVVSVLTPLHQDWLNGKEYKCKVSNKALPAPIEKTISKAKGQPREPQVYTLPPSRDELTKNQVSLTCLVKGFYPSDIAVEWASNGQPENNYKTTPPVLDSDGSFFLYSKLTVDKSRWQQGNVFSCSVLHEALHYHYTQKSLSLSP light: not shown |
| 100 | IgG1-F287 (antibody, EU numbering; copies: 2 + 2) heavy: QVQLQESGPGLVKPSETLSLTCAVSGHSISHDHAWSWVRQPPGEGLEWIGFISYSGITNYNPSLQGRVTISRDNSKNTLYLQMNSLRAEDTAVYYCARSLARTTAMDYWGEGTLVTVSSASTKGPSVFPLAPSSKSTSGGTAALGCLVKDYFPEPVTVSWNSGALTSGVHTFPAVLQSSGLYSLSSVVTVPSSSLGTQTYICNVNHKPSNTKVDKKVEPKSCDKTHTCPPCPAPELLGGPSVFLFPPKPKDTLYISRTPEVTCVVVDVSHEDPEVKFNWYVDGVEVHNAKTKPREEQYNSTYRVVSVLTPLHQDWLNGKEYKCKVSNKALPAPIEKTISKAKGQPREPQVYTLPPSRDELTKNQVSLTCLVKGFYPSDIAVAWASNGQPENNYKTTPPVLDSDGSFFLYSKLTVDKSRWQQGNVFSCSVFHEALHYHYTQKSLSLSP light: not shown |
| 23 | IgG1-F292 (antibody, EU numbering; copies: 2 + 2) heavy: QVQLQESGPGLVKPSETLSLTCAVSGHSISHDHAWSWVRQPPGEGLEWIGFISYSGITNYNPSLQGRVTISRDNSKNTLYLQMNSLRAEDTAVYYCARSLARTTAMDYWGEGTLVTVSSASTKGPSVFPLAPSSKSTSGGTAALGCLVKDYFPEPVTVSWNSGALTSGVHTFPAVLQSSGLYSLSSVVTVPSSSLGTQTYICNVNHKPSNTKVDKKVEPKSCDKTHTCPPCPAPELLGGPKVFLFPPKPKDTLYISRTPEVTCVVVDVSHEDPEVKFNWYVDGVEVHNAKTKPREEQYNSTYRVVSVLTPLHQDWLNGKEYKCKVSNKALPAPIEKTISKAKGQPREPQVYTLPPSRDELTKNQVSLTCLVKGFYPSDIAVEWASNGQPENNYKTTPPVLDSDGSFFLYSKLTVDKSRWQQGNVFSCSVIHEALHYHYTQKSLSLSP light: not shown |
| 100 | IgG1-F284 (antibody, EU numbering; copies: 2 + 2) heavy: QVQLQESGPGLVKPSETLSLTCAVSGHSISHDHAWSWVRQPPGEGLEWIGFISYSGITNYNPSLQGRVTISRDNSKNTLYLQMNSLRAEDTAVYYCARSLARTTAMDYWGEGTLVTVSSASTKGPSVFPLAPSSKSTSGGTAALGCLVKDYFPEPVTVSWNSGALTSGVHTFPAVLQSSGLYSLSSVVTVPSSSLGTQTYICNVNHKPSNTKVDKKVEPKSCDKTHTCPPCPAPELLGGPSVFLFPPKPKDTLYISRTPEVTCVVVDVSHEDPEVKFNWYVDGVEVHNAKTKPREEQYNSTYRVVSVLTPLHQDWLNGKEYKCKVSNKALPAPIEKTISKAKGQPREPQVYTLPPSRDELTKNQVSLTCLVKGFYPSDIAVEWESNGQPENNYKTTPPVLDSDGSFFLYSKLTVDKSRWQQGNVFSCSVYHEALHYHYTQKSLSLSP light: not shown |
| 100 | IgG1-F283 (antibody, EU numbering; copies: 2 + 2) heavy: QVQLQESGPGLVKPSETLSLTCAVSGHSISHDHAWSWVRQPPGEGLEWIGFISYSGITNYNPSLQGRVTISRDNSKNTLYLQMNSLRAEDTAVYYCARSLARTTAMDYWGEGTLVTVSSASTKGPSVFPLAPSSKSTSGGTAALGCLVKDYFPEPVTVSWNSGALTSGVHTFPAVLQSSGLYSLSSVVTVPSSSLGTQTYICNVNHKPSNTKVDKKVEPKSCDKTHTCPPCPAPELLGGPSVFLFPPKPKDTLYISRTPEVTCVVVDVSHEDPEVKFNWYVDGVEVHNAKTKPREEQYNSTYRVVSVLTPLHQDWLNGKEYKCKVSNKALPAPIEKTISKAKGQPREPQVYTLPPSRDELTKNQVSLTCLVKGFYPSDIAVEWASNGQPENNYKTTPPVLDSDGSFFLYSKLTVDKSRWQQGNVFSCSVYHEALHYHYTQKSLSLSP light: not shown |
| 41 | IgG1-F280 (antibody, EU numbering; copies: 2 + 2) heavy: QVQLQESGPGLVKPSETLSLTCAVSGHSISHDHAWSWVRQPPGEGLEWIGFISYSGITNYNPSLQGRVTISRDNSKNTLYLQMNSLRAEDTAVYYCARSLARTTAMDYWGEGTLVTVSSASTKGPSVFPLAPSSKSTSGGTAALGCLVKDYFPEPVTVSWNSGALTSGVHTFPAVLQSSGLYSLSSVVTVPSSSLGTQTYICNVNHKPSNTKVDKKVEPKSCDKTHTCPPCPAPELLGGPKVFLFPPKPKDTLYISRTPEVTCVVVDVSHEFPEVKFNWYVDGVEVHNAKTKPREEQYNSTYRVVSVLTPLHQDWLNGKEYKCKVSNKALPAPIEKTISKAKGQPREPQVYTLPPSRDELTKNQVSLTCLVKGFYPSDIAVEWESNGQPENNYKTTPPVLDSDGSFFLYSKLTVDKSRWQQGNVFSCSVMHEALHYHYTQKSLSLSP light: not shown |
| 190 | IgG1-F288 (antibody, EU numbering; copies: 2 + 2) heavy: QVQLQESGPGLVKPSETLSLTCAVSGHSISHDHAWSWVRQPPGEGLEWIGFISYSGITNYNPSLQGRVTISRDNSKNTLYLQMNSLRAEDTAVYYCARSLARTTAMDYWGEGTLVTVSSASTKGPSVFPLAPSSKSTSGGTAALGCLVKDYFPEPVTVSWNSGALTSGVHTFPAVLQSSGLYSLSSVVTVPSSSLGTQTYICNVNHKPSNTKVDKKVEPKSCDKTHTCPPCPAPELLGGPSVFLFPPKPKDTLYISREPEVTCVVVDVSHEDPEVKFNWYVDGVEVHNAKTKPREEQYNSTYRVVSVLTVLHQDWLNGKEYKCKVSNKALPAPIEKTISKAKGQPREPQVYTLPPSRDELTKNQVSLTCLVKGFYPSDIAVEWASNGQPENNYKTTPPVLDSDGSFFLYSKLTVDKSRWQQGNVFSCSVMHEALHYHYTQKSLSLSP light: not shown |
